Molecular target: human Fas (human) (UniProt P25445)
Assay: cell-based or functional assay

Sequence of UniProt P25445 (P25445 26-335): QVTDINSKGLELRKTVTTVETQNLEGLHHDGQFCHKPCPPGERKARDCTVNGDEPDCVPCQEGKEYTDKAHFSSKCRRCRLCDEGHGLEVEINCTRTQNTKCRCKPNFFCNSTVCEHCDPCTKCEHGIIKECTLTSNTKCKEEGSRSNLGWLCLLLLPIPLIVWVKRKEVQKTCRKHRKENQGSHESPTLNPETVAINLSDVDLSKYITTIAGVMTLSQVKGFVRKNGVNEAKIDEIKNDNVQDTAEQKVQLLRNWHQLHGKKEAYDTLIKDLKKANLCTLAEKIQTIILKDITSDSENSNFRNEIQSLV

Substance “CH-11 agonist mAb to Fas (Panvera, Madison, WI) (antibody)” has an apoptotic nuclei (DAPI) in MCF7-Fas cells transfected with pMT2 alone, treated 9 h with CH-11 (500 ng/ml) plus cycloheximide of 62%.

Source: US6881402
